One data set has as its target T1, ReAV (Rhizobium etli, UniProt Q2K0Z2).
T1 construct: gene ansA; recombinant from plasmid pET151-D-ReAV in E. coli BL21 Gold (DE3); His-tag cut with TEV protease; homodimer, Zn site C135/K138/C189
The experiment in a line: multiple injection isothermal titration calorimetry (ITC-MIM). It counts as biochemical. Particulars: 10 mM Tris-HCl pH 9.0, 37 °C, no added Zn2+; WT values cited to the same group's earlier paper (Sliwiak et al., 2024); cited from earlier work. The source says:
(§1) multiple injection isothermal titration calorimetry (ITC-MIM) on ReAV
In general terms: Isothermal titration calorimetry measures the heat released or taken up as one component is titrated into another.

Substrate in data set [1]: NC(=O)C[C@H](N)C(=O)O
The description is as above. The note with it: 10 mM Tris-HCl pH 9.0, 37 °C, no added Zn2+. It counts as biochemical, Rhizobium etli.
Source text: as §1

Data set [2] deals with the molecule itself. Kind of data set: crystal structure; vapor diffusion crystals grown at 19°C, protein supplemented with 0.5%-1% DDM; data at 100 K; molecular replacement with WT ReAV (PDB 7os5); homodimer(s) in the asymmetric unit.

Where a chain is given by its changes, count along the chain named. Names may count otherwise.

T1 sequence (Q2K0Z2 entry or part of it): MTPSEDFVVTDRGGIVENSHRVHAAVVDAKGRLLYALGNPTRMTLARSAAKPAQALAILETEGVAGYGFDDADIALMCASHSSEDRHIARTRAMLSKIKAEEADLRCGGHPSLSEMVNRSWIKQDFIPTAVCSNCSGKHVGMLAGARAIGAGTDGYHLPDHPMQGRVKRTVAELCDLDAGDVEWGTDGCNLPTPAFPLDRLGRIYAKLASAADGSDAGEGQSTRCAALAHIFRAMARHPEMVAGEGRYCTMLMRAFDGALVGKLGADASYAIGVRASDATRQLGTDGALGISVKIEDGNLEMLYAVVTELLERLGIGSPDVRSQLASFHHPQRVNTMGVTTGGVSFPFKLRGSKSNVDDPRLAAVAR

What is called Km is the concentration of substrate that gives half-maximal velocity. `NC(=O)C[C@H](N)C(=O)O` [L-asparagine]: the Km on ReAV is 2700 ± 100 µM.

B1: ReAV H139A (enzyme, Rhizobium etli)
chain: MTPSEDFVVTDRGGIVENSHRVHAAVVDAKGRLLYALGNPTRMTLARSAAKPAQALAILETEGVAGYGFDDADIALMCASHSSEDRHIARTRAMLSKIKAEEADLRCGGHPSLSEMVNRSWIKQDFIPTAVCSNCSGKAVGMLAGARAIGAGTDGYHLPDHPMQGRVKRTVAELCDLDAGDVEWGTDGCNLPTPAFPLDRLGRIYAKLASAADGSDAGEGQSTRCAALAHIFRAMARHPEMVAGEGRYCTMLMRAFDGALVGKLGADASYAIGVRASDATRQLGTDGALGISVKIEDGNLEMLYAVVTELLERLGIGSPDVRSQLASFHHPQRVNTMGVTTGGVSFPFKLRGSKSNVDDPRLAAVAR
notes: Homodimer in the crystal (two dimers per asymmetric unit); also called H139A mutant; Rhizobium etli Class 3 L-asparaginase ReAV H139A mutein; source: E. coli BL21 Gold, purified (HisTrap, TEV digestion, Superdex 200)
The term kcat denotes the maximal rate divided by the concentration of active sites. For orientation: kcat/Km means the second-order rate constant that governs catalysis at low substrate concentration. As for B1, in data set [1], the Km worked out at 5600 ± 200 µM, the kcat was 445 ± 20 s⁻¹ and the kcat/Km was 80000 ± 1000 M⁻¹ s⁻¹. Moreover, the binding result in data set [2] is listed as “binds”.

B2: ReAV C189A (enzyme, Rhizobium etli)
chain: B1 chain with A139H, C189A
notes: Homodimer in the crystal (one dimer per asymmetric unit); also called C189A mutant; Rhizobium etli Class 3 L-asparaginase ReAV C189A mutein; source: E. coli BL21 Gold, purified (HisTrap, TEV digestion, Superdex 200)
For B2, the binding result in data set [2] was “binds”.

B3: ReAV K138A (enzyme, Rhizobium etli)
chain: B1 chain with K138A, A139H
notes: Homodimer in the crystal (two dimers per asymmetric unit); also called K138A mutant; Rhizobium etli Class 3 L-asparaginase ReAV K138A mutein; source: E. coli BL21 Gold, purified (HisTrap, TEV digestion, Superdex 200)
For B3, the binding result in data set [2] is “binds”.

B4: ReAV C135A (enzyme, Rhizobium etli)
chain: B1 chain with C135A, A139H
notes: Homodimer in the crystal (one dimer per asymmetric unit); also called C135A mutant; Rhizobium etli Class 3 L-asparaginase ReAV C135A mutein; source: E. coli BL21 Gold, purified (HisTrap, TEV digestion, Superdex 200)
With B4, the binding result in data set [2] is listed as “binds”.

B5: ReAV D187A (enzyme, Rhizobium etli)
chain: B1 chain with A139H, D187A
notes: Homodimer in the crystal (two dimers per asymmetric unit); also called D187A mutant; Rhizobium etli Class 3 L-asparaginase ReAV D187A mutein; source: E. coli BL21 Gold, purified (HisTrap, TEV digestion, Superdex 200)
Take B5: in data set [2], the binding result is “binds”.

Source of the values: paper PMC11024299, “Probing the active site of Class 3 L-asparaginase by mutagenesis. I. Tinkering with the zinc coordination site of ReAV” (Frontiers in Chemistry, 2024).
